For the assay, the target named is T1, Cynomolgus monkey CD73 on HEK293-cynoCD73 stable cell line (cynomolgus monkey).
T1 construct: whole, on cells
In words: flow cytometry on HEK293-cynoCD73 stable cells. The procedure: Binding of antibodies to hCD73 and cynoCD73 expression in stable cell line was characterized by Flow cytometry. The cells were incubated with various concentration antibodies (the top concentration was 50 nM, 8 points, dilution factor 3), then incubate for 1 h at 4° C. Wash two times by PBS, then add the secondary antibody Goat anti-human(H+L) (Thermo fisher, A11013), incubate for 30 min at 4° C. And the fluorescence intensity was read by FACS Machine (BD FACS CantoII). A plot of median fluorescence intensity and the binding EC50 were fitted and calculated by GraphPad Prism 5.
(Flow cytometry measures light scatter and fluorescence of single cells or particles in a stream.)

B1: PR000506 (antibody, human IgG1, kappa, L234A L235A, V domains shown)
VH: QVQLVESGGGVAQPGRSLSLSCAASGFTFSDYGMHWVRQAPGKGLEWVALIWYDGSFEYYADSVKGRFSISRDNSKNTLYLQMNSLRAEDTAVYYCVRDGQWGSRLDYWGQGTLVTVSS
VL: KIVMTQSPATLSLSPGERATLSCRASQSVSRYLAWYQQKPGQAPRLLIYDASNRATGIPARFSGSGSGTDFTLTISSLEPEDFAVYYCQQRSNWIFTFGPGTKVDIKR
notes: Recombinant antibody from hybridoma clone 38H6; also called 38H6E5 (clone name)
For B1, the EC50 was 0.323 nM.

B2: PR000849 (antibody, human IgG1, kappa, L234A L235A, V domains shown)
VH: QVQLVESGGGVAQPGRSLSLSCAASGFTFSDYGMHWVRQAPGKGLEWVALIWYDASFEYYADSVKGRFSISRDNSKNTLYLQMNSLRAEDTAVYYCVREGQWGSRLDYWGQGTLVTVSS
VL: EIVLTQSPATLSLSPGERATLSCRASQSVSRYLAWYQQKPGQAPRLLIYDASNRATGIPARFSGSGSGTDFTLTISSLEPEDFAVYYCQQRSNWIFTFGPGTKVDIKR
notes: PTM-removal variant of PR000851 (heavy chain G55A, D99E)
On to B2, for which the 50% effective concentration (EC50) is 0.515 nM.

B3: PR000844 (antibody, human IgG1, kappa, L234A L235A, V domains shown)
VH: QVQLVESGGGVAQPGRSLSLSCAASGFTFSDYGMHWVRQAPGKGLEWVALIWYEGSFEYYADSVKGRFSISRDNSKNTLYLQMNSLRAEDTAVYYCVRDAQWGSRLDYWGQGTLVTVSS
VL: KIVMTQSPATLSLSPGERATLSCRASQSVSRYLAWYQQKPGQAPRLLIYDASNRATGIPARFSGSGSGTDFTLTISSLEPEDFAVYYCQQRSNWIFTFGPGTKVDIKR
notes: PTM-removal variant of PR000506 (heavy chain D54E, G100A)
For B3, the half-maximal effective concentration (EC50) turned out to be 0.475 nM.

B4: Tab1 (antibody, human IgG1, lambda, V domains shown)
VH: EVQLLESGGGLVQPGGSLRLSCAASGFTFSSYAYSWVRQAPGKGLEWVSAISGSGGRTYYADSVKGRFTISRDNSKNTLYLQMNSLRAEDTAVYYCARLGYGRVDEWGRGTLVTVSS
VL: QSVLTQPPSASGTPGQRVTISCSGSLSNIGRNPVNWYQQLPGTAPKLLIYLDNLRLSGVPDRFSGSKSGTSASLAISGLQSEDEADYYCATWDDSHPGWTFGGGTKLTVLG
notes: also called PR002078; MEDI9447(TAB1)
In the case of B4, the EC50 was found to be 0.623 nM.

Usually EC50 stands for the concentration that produces a half-maximal response.
